Molecular target: interferon α (IFNα) (UniProt P01563)
Assay: SPR

Kd: 4.58 nM
B1: human IFNAR1 (receptor)
chain: KNLKSPQKVEVDIIDDNFILRWNRSDESVGNVTFSFDYQKTGMDNWIKLSGCQNITSTKCNFSSLKLNVYEEIKLRIRAEKENTSSWYEVDSFTPFRKAQIGPPEVHLEAEDKAIVIHISPGTKDSVMWALDGLSFTYSLVIWKNSSGVEERIENIYSRHKIYKLSPETTYCLKVKAALLTSWKIGVYSPVHCIKTTVENELPPPENIEVSVQNQNYVLKWDYTYANMTFQVQWLHAFLKRNPGNHLYKWKQIPDCENVKTTQCVFPQNVFQKGIYLLRVQASDGNNTSFWSEEIKFDTEIQAFLLPPVFNIRSLSDSFHIYIGAPKQSGNTPVIQDYPLIYEIIFWENTSNAERKIIEKKTDVTVPNLKPLTVYCVKARAHTMDEKLNKSSVFSDAVCEKTKPGNTSKIWLIVGICIALFALPFVIYAAKVFLRCINYVFFPSLKPSSSIDEYFSEQPLKNLLLSTSEEQIEKCFIIENISTIATVEETNQTDEDHKKYSSQTSQDSGNYSNEDESESKTSEELQQDFV

Reference: article PMC7893194
